Results as given in the RNAGym collection of RNA variant scans (doi:10.1073/pnas.2313332121).

B1: TPR t1 (parent)
chain: GACCAAUCUGCCCUCAGAGCUCGAGAACAUCUUCGGAUGCAGAGGAGGCAGGCUUCGGUGGCGCGAUAGCGCCAACGUCCUCAACCUCCAAUGCAUCCCACCACAUGAUGAUGCCUGAAGAGCCUUGGUUUUUUG

Variants of: B1
Assay: polymerase ribozyme fitness, log enrichment relative to wild type (log ratio); higher = more active; in vitro selection for triplet polymerase activity
In short: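 Mutant libraries of both subunits of a heterodimeric triplet polymerase ribozyme were PCR-built, transcribed, and selected once in triplicate, with frozen incubation at −7 °C and capture of gel-excised extended constructs on streptavidin beads before RT-PCR. Illumina sequencing of input and output libraries was filtered to genotypes with ≥10 input reads and ≥1 read per output. Fitness is the logarithm of genotype enrichment over wild-type enrichment, using inverse-variance-weighted replicate averages. The logarithm is base 2.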

Variant	polymerase ribozyme fitness (log ratio)
GACCAAUCUGCCCUCAGAGCUCGAGAACAUCUUCGGAUGCAGAGGAAGCAGGCUUCGGUGGCGCGAUAGCUCCAACGUCCUCAACCUCCAAUGCAUCCCACCAAAUGAUGAUGCCUGAAGAGCCUUGGUUUUUUG [G47A G71U C104A]	-2.85
GACCAAACUACCCUCAGAGCUCGAGAACAUCUUCGGAUGCAGAGGAGGCAGUCUUCGGUGGGGCGAUAGCGCCAACGUCCUCAACCUCCAAUGCAUCCCACCACAUGAUGAUGCCUGAAGAGCCUUGGUUUUUUG [U7A G10A G52U C62G]	-2.23
GACCAAUAUGCCCUCAGAACUCGAGAACAUCUUCGGAUGCAGAGGAGGCAGGCUUCGGUGGCGCGAUAGCGCCAACGUCCUCAACCUGCAAUGCCUCCCACCACAUGAUGAUGCCUGAAGAGCCUUGGUUUUUUG [C8A G19A C88G A95C]	-5.8
GACCAAUCUGCCUUCAGAGCUCGAGAACAUCUUCGGAUGCAGAGGAGGCAGGCUUCGGUGGCGCGAUAGCGCCAACGUCCUCAACCUCCAAUGCAUCCCACCACAUGAUGAUCCCUGAAGAGCCUUGGUUUUUUG [C13U G113C]	-1.31
GACCAAUCUGCCCUCAGAGCUCGAGAACAUCUUCGGAUGCAGCGGAGGCAGGCUUCGGUGGCGCGAUAGCGCCAACGUCCUCAACCUCCAAUGCAUCCCACCACAUGAUGAUGCCUCAAGAGCCUUGGUUUUUUG [A43C G117C]	-4.86
GACCAAUCUGCCCUCAGAGCUCGAGAACAUCUUCGGAUGCAGAGGAGGCAGGCAACGGUGGCGCGAUAGCGCCGACGUCCUCAACCUCCAAUGCAUCCCACCACAUGAUGAUGCCUGAAGAGCCUUGGUUUUUUG [U54A U55A A74G]	-0.235
GACCAAUCGGCCCUCAGAGCUCGAGAACGUCUUCGGAUGCAUAGGAGGCAGGCUUCGGUGGCGCGAUAGCGCCAACGUCCUCAACCUCCAAUGCAUCCCACCACAUGAUGAUGCCUGAAGAGCCUUGGUUUUUUG [U9G A29G G42U]	-2.93
GACCAAUCUGCCCUCAGAGCUCGAGAACAUCUUCGGAUGCAGAGGAGUCAGGCUUCGGUGGCGCGAUAGCGCCAACGUCCUCAACCUCCAAUGCAUCCCACCACAUGAUAAUGCCUGAAGAGCCUUGGUUUUUUG [G48U G110A]	-1.84
GACCAAUCUAGCCUCAGAGCUCGAGAUCAUCUUCGGAUGCAGAGGAGGCAGGCUUCGGUAGCGCGAUAGCGCCAACGGCCUAAACCUCCAAUACAUCCCACCACGUGAGGAUGCCUGAAGAGCCUUGGUUUUUUG [G10A C11G A27U G60A U78G C82A G93A A105G U109G]	-6.59
GACCAACGUGCCCUCAGAGCUCGAGAACAUCUUCGGAUGCAGAGGAGGCAGGCUUCGGUGGCGCGAUAGCGCCAACGUCCUCAAACUCCAAUGCAUCCCACCACAUGAUGAGGCCUGAAGAGCCUUGGUUUUUUG [U7C C8G C85A U112G]	-1.68
GACCAAUCUGCCCUCAGAGCUCGAGAACAUCUUCGGAUGCAGAGGAGGCAUGCUACGGUGGCGUGAUAGCGCCAACGUCCUCAACCUCCAAUGCAUCCCACCACAUGAUGAUGGUUGAAGAGUCUUGGUUUUUUG [G51U U55A C64U C114G C115U C123U]	-7.28
GACCAAUCUGCCCUCUGAGCUCGAGAACAUCUUCGGAUGCAUAGGAGGCAGGCUUCGGUGGCGCGAUAGCGCCAACGUCCUCAACCUCCAAUGCAUCCCACCACAUGAUGAUGCCUGAAGAGCCUUGGUCUUUUG [A16U G42U U130C]	-3.77
GACCAAUCUGCCCUCAGAGCUCGAGAACACCUUCGGAUGCAGAGGAGGCAGGCUUCGGUAGCGCGAUAGCGCCAACGUCCUCAACCUCCAAUGCAUCCCACCACAUGAUGAUGCCUGAAGAGCCUUGGUUUUUUG [U30C G60A]	-1.98
GACUAAUCUGCCCUCAGAGCUCGAGAACAUCUUCGGAUGCAGAGGAGGCAGGCUUCGGUGGCGCGAUAGCGCCAACGUCCUCAACCUCCAAUGCAACCCACCACAAGAUGAUGCCUGAAGAACCUUGGUUUUUUG [C4U U96A U106A G122A]	-0.892
GACCAAUCUGCCCUCAGAGCUCGAGAACACCUUCGGAUGCAGAGGAGGCAGGCUUGGGUGGCGCGAUAGGGCCAACGUCCUCAACCUCCAAUGCAUCCCACCACAUGAAGAUGCCUGAAGAGCCUUGGUUUUUUG [U30C C56G C70G U109A]	-5.1
GACCAAUCUGCCCUCAGAGCUCGAGAACAUCUUCGGAUGCAGAGGAAGCAGGCUUCGGUGGAGCGAUAGAGCCAACGUCCUCAACCUCCAAUGCAUCCCACCACAUGAUGAUGCCUGAAGAGCCUUGGUUUUUUG [G47A C62A C70A]	-4.43
GACCAAUCUGCCCUCAGAGCUCGAGAACAUCUUCCGAUGCAGAGGAGGCAGGCUUCGGUGGCGCGAUAGCGCCAAUUUCCUCAACCUCCAAUGCAUCCCACCACAUGAUGAUGCCUGAAGAGUCUUGGUUUUUUG [G35C C76U G77U C123U]	-6.87
GACCAAUCUGCCCUCAGUGCUCGAGAACAUCUUCGGAUGCAGAGGAGGCAGGCUUCGGUAGCGCGAUAGCGCCAACGUCCUCAACCUGCAAUGCAUCCCACCACAUGAUGAUGCCUGUAGAGCCUUGGUGUUUUG [A18U G60A C88G A118U U130G]	-3.95
GACCAAUCUGCCCUCAGAGCUCGAGAACGUCUUCGGCUGCAGAGCAGGCAGGCUUCGGUGGCGCGAUAGCGCCAACGUCCUCAACCUCCAAUGCAUCCCACCACAUGAUGAUGCCUGAAGAGCCUUGGUUUUUUG [A29G A37C G45C]	-3.58
GACCAAUCUGGCCUCAGAGUUCGAGAACAUCUUCGGAUGCAGAGGGGGCAGGCUUCGGUGGCGCGAUAGCGCCAACGUCCUCGACCUCCAAUGCGUCCCACCACAUGAUGAUGCCUGAAGAGCCUUGGUUUUUUG [C11G C20U A46G A83G A95G]	-1.9
GACCAAUCUGCCAUCAGAGCUCGAGACCAUCUUCGGAUGCAGAGGAGGCAGGCUUCGGUGGCGCGAUAGCGCCAACGUCCUCAACCUCCAAUGCAUCCCACCACAUGAUGAUGCCUGAAGAGCCUUGGUUUUUUG [C13A A27C]	-3.81

Variant	polymerase ribozyme fitness (log ratio)
GACCAAUCUGCCCUCAGAGAUCGAGAACAUCUUCGGAUGCAGAGGAGGCAGGAUUCGGUGGCGCGAUAGCGCCAACGGCCUGAACCUCCAAUGCAUCCCACCACAUGAUGAAGCCUGAAGAGCCUUGGUUUUUUG [C20A C53A U78G C82G U112A]	-0.686
GACCCAUCUGCCCUGAGAGCUCGAGAACAUCUUCGGAUGCAGAGGAGGCAGGCUUCUGUGGCGCGAUAGCGCCAACGUCCUCAACCUCCAAUGCAUCCCACCACAUGAUGAUGCCUGAAGAGCCUUGGUUUUUUG [A5C C15G G57U]	-3.53
GACCAAUCUGCCCUCAGAGCUCGAGAACAUCUUCGGAUGCAGAGGAGGCCGGCUUCGGUGGCGCGAUAGCGCCAACGUCCUCAACCUCCAAUGCAUCCCACCACAUGAUGAUGCCUGAAGUGCCUUGGUUUUUUG [A50C A121U]	2.16
GACCAAUCUGCCCUCAGAGCUCGAGAAAAUCUUCGGAUGCAGAGGAGGUAGGCUUCGGUGGCGCGAUAUCGCCAACGUCCUCAACCUCCAAUGCAUCCCACCACAUGAUGAUACCUGAAGAGCCUUGGUUUUUUG [C28A C49U G69U G113A]	-1.42
GACCAAUCUGCCCUCAGAGCUCGAGAACAUCUUCGGAUGCAGAGGAGGCAGGCUCCGGUGGCGCGAUAGCACCAACGUCCUCAUCCUCCAAUGCAUCCCACAAUAUGAUGAUGCCUGAAGAGCCUUGGUUUUUUG [U55C G71A A84U C102A C104U]	-3.41
GACCAAUCUGCCCUCAGAGCUCGAGAACAUCUUCGGAUGCAGAGGAGGCAGGCUUCGGUGGCGCGAUAGUGCCAACGUCCUCAACCUCCAAUGCAUCCCACGACAUGAUGAUGCCUGAAGAGCCUUGGUUUUUUG [C70U C102G]	-6.87
GACCAAUCUACCCUCAGAGCUCGAGAACGUCUUCGGAUGCAGAGGAGGCAGGCUUCGGUGGCGCGAUAGCGCCAACGUCCUCAACCUCCAAUGCAUCCCACCACAUGAUGAUGCCUGAAGAGCCUUGGUUUUUUG [G10A A29G]	-2.58
GACCAUUCUGCCCUCAGAGCUCGAGAACAUCUUCGGAUGCAGAGGAGGCAGGCUUCGGUGGCGCGAUAGCGCCAACGUCCUCAACCUCCAAUGCAUCCCACCACAUGAUGAUGCCUGAAGGGCCUUGGUUUUUUG [A6U A121G]	2.04
GACCAAUGUGCCCUCAGAGCUCGAGAACAUCUUCGGAUGCAGAGGACGCAGGCUUCGGUGGCGCGAUAGCGCCAACGUCCUCAACGUCCAAUGCAUCCCACCACAUGAUGAUGCCUGAAGAGCAUUGGUUUUUUG [C8G G47C C86G C124A]	1.6
GACCAAUCUGCCCUCAGAGCUCGAGAACAUCUUCGGAUGCAGAGGAGGCAGGCUUCGGUGGCGCGAUAUCGCCAACGUCCUCAACCUCCAAUGCAUCUCACCACAUGAUGAUGCCUGAAGAGCCUUGGCUUUUUG [G69U C98U U129C]	-1.15
GACCAAUCUGCCCUCAGAGCUCGAGAACAUCUUCGGAUGCAGAGGAGGCAGGCUUCGGUGGCGCGAUAGCGCCAACGGCCUCAAGCUACAAUGCAUCCCACCACAUGAUGGUGACUGAAGAGCCUUGGUUUUUUG [U78G C85G C88A A111G C114A]	-6.16
GACCAAUCUGCCCUCAGAGCUCGAGAACUUCUUCGGAUGCAGAGGAGGCAGGCUUCGGUGGCGCGAUAGCGCCAACGUCCUCAACCUCCAAUGCAUCCCACCACAUGAUGAAGCCUGAAGAGCCUGGGUUUUUUG [A29U U112A U126G]	-2.25
GACCAAUCUGCCCUCAGAGCUCGAGAACAUCUUCGGAUGCAGCGGAGGCGGGCUUCGGUGACGCGAUAGCGCCAACGUCCUCAACCUCCAAUGCAUCCCACCACAUGAUGAUGCACGAAGAGCCUUGGUUUUUUG [A43C A50G G61A C115A U116C]	-4.2
GACCAAUCUGUCCUCAGAGCUCGAGAACAUCUUCGGAUGUAGAGGAGGCAGGCUUCGGUGGCGCGAUAGCGCCAACGUCCUCAACCUCCAAUGCAUCCCAACACAUGAUGAUGCCUGAAGAGCCUUGGUUUUUUG [C11U C40U C101A]	-2.4
GACCAAUCUGCCCUCAGAGCUCGAGAACAUCUUCGAAUGCAGAGGAGGCAGGCUUCGGUGGCGCGAUAGCGCCAACGUCCUCAACCUCCAAUGCAUCCCACCACAUGAAGAUGCCUGAAGAGCCUUGGUUUUUUG [G36A U109A]	-5.64
GACCAAUCUGCCCUCAGAGCUCGAGAACAUCUUCGGAUGCAGAGGAGGCAGGCUUCGGUGGCACGAUAGCGCCAACGUCCUCAUCCUCCAAGGCAUCCCACCACAUGAUGAUGCCUAAAGAGCCUUGGUUUUUUG [G63A A84U U92G G117A]	-6.18
GACCAAUCUGCCCUCAGAGCUCGAGAACAUCUUCGGAUGUAGAGGAGGCAGCCUUCGGUGGCGCGAUAGCGCCAACGUCCUCAACCUCCAAUACAUCCCACCACAUGAUGAUGCCUGAAGAGCCUUGGUUUUUUG [C40U G52C G93A]	-1.38
GACCAAUCUGCCCUCAGAGCUCGAGAACAUCUUCGGAUGCAGAGGCGGCAGGCUUCGGUGGCGCGAUAGCGCCAACGUCCUCAACCUCCAAUUCAUCCCACCACAUGAUGAUGCCUGAAGAGCCUUGGUUUUUUG [A46C G93U]	-1.86
GACCAAUCUGCCCUCAGAGCUCGAGAACAUCAUCGGAUGCAGAAGAGGCAGGCUUCGGUGGCGCGAUAGCGCCAACGUCCUCAACCCCCAAUGCAUCCCACCACAUGAUGAUGCCUGAAGAGCCUUGGUUUUUUG [U32A G44A U87C]	-5.32
GCCGAAUCUGCCCUCAGAGCUCGAGAACAUCUUCGGAUGCAGAGGAGGCAGGCUUCGGUGGCGCGAUAGCGCCAACGUCCUCAACCUCCAAUGCAUCCCACCACAUGAUGAUGACUGAAGAGCCUUGGUUUUUUG [A2C C4G C114A]	-3.53
GACCAAUCUGCCCUCAGAGCUCGAGAACAUCUUCGGAUGCAGAGGAGGCAGGCUUCGGUGGCGCGAUAGCGCCAACGUCCUUAACCUCCAAUGCAUGCCACCACAUGAUGAUGCCUGAAGAGCCUUGGUUUUUUG [C82U C97G]	-4.81
